Values joined by “and” are separate entries in the source; they are usually repeats but may differ in a detail not shown here. Equal values may be shown once.
Conditions: Escherichia coli (strain K12); pH 7.8; 23 °C; Urea; Absorbance; Potassium phosphate 10 mM; transition: 3; reversible: yes; whole UniProt chain shown

B1: Tryptophan synthase alpha chain wild type, P0A877 (protein)
chain: MERYESLFAQLKERKEGAFVPFVTLGDPGIEQSLKIIDTLIEAGADALELGIPFSDPLADGPTIQNATLRAFAAGVTPAQCFEMLALIRQKHPTIPIGLLMYANLVFNKGIDEFYAQCEKVGVDSVLVADVPVEESAPFRQAALRHNVAPIFICPPNADDDLLRQIASYGRGYTYLLSRAGVTGAENRAALPLNHLVAKLKEYNAAPPLQGFGISAPDQVKAAIDAGAAGAISGSAIVKIIEQHINEPEKMLAALKVFVQPMKAATRS
  denaturant m value: 2.5 kcal/mol/M and 1.4 kcal/mol/M
  denaturant midpoint (higher = more stable): 2.51 M and 3.73 M
  unfolding free energy: 6.4 kcal/mol and 5.2 kcal/mol

— FireProtDB (doi:10.1074/jbc.270.30.17712)
